Patent publication EP4248993A1 (Charité - Universitätsmedizin Berlin, dated 2023)

Legend:
[1] = biological target: MERS-CoV RBD Twin-Strep His (wild type, G372-L588) (MERS-CoV); experiment: ELISA (Figure 6A)
[2] = biological target: MERS-CoV RBD Twin-Strep His (wild type, G372-L588) (MERS-CoV); experiment: BLI, RBD Twin-Strep His on anti-Penta-His biosensor, global 1:1 fit
[3] = biological target: MERS-CoV RBD Twin-Strep His (wild type, G372-L588) (MERS-CoV); experiment: as above; remark: listed apart in the source

B1: recombinant mouse DPP4 (mDPP4) (receptor)
chain: SKDEAAADSRRTYSLADYLKSTFRVKSYSLWWVSDFEYLYKQENNILLLNAEHGNSSIFLENSTFESFGYHSVSPDRLFVLLEYNYVKQWRHSYTASYNIYDVNKRQLITEEKIPNNTQWITWSPEGHKLAYVWKNDIYVKVEPHLPSHRITSTGEENVIYNGITDWVYEEEVFGAYSALWWSPNNTFLAYAQFNDTGVPLIEYSFYSDESLQYPKTVWIPYPKAGAVNPTVKFFIVNIDSLSSSSSAAPIQIPAPASVARGDHYLCDVVWATEERISLQWLRRIQNYSVMAICDYDKINLTWNCPSEQQHVEMSTTGWVGRFRPAEPHFTSDGSSFYKIISDKDGYKHICHFPKDKKDCTFITKGAWEVISIEALTSDYLYYISNQYKEMPGGRNLYKIQLTDHTNVKCLSCDLNPERCQYYAVSFSKEAKYYQLGCWGPGLPLYTLHRSTDHKELRVLEDNSALDRMLQDVQMPSKKLDFIVLNETRFWYQMILPPHFDKSKKYPLLLDVYAGPCSQKADASFRLNWATYLASTENIIVASFDGRGSGYQGDKIMHAINRRLGTLEVEDQIEAARQFVKMGFVDSKRVAIWGWSYGGYVTSMVLGSGSGVFKCGIAVAPVSRWEYYDSVYTERYMGLPIPEDNLDHYRNSTVMSRAEHFKQVEYLLIHGTADDNVHFQQSAQISKALVDAGVDFQAMWYTDEDHGIASSTAHQHIYSHMSHFLQQCFSLH
- binding result [1]: no binding

B2: recombinant rabbit DPP4 with C-terminal 6xHis-tag (rbDPP4-His) (receptor)
chain: NKGNHEYLHRQEDNILLFNAEYGNSSLFLANITFDEFGHSITDYSVSPDRLFLLLEYNYVKQWRHSYTASYDIYDLNKRQLITEERIPNNTQWITWAPEGHRLAYVWNNDIYVKLEPNLPSQRITWTGKADVIYNGITDWVYEEEVFSAYSALWWSPNGTFLAYAQFNDTGVPLIEYSFYSDEALQYPKTVRIPYPKAGAVNPTVRFFVVNTDSLSSITNATSVQITAPASMLIGDHYLCDVTWVTHERISLQWLRRIQNYSVMDICDYDRSSGRWNCLVARQHIEMSTTGWVGRFRPAEPHFTSDGNSFYKIMSNEEGYKHICYSLIDNQSCTFITRGAWEVIGIEALTSDYLYYISNEYKGMPGGRNLYKIQLTDHTKVTCLSCELKPERCQYYSVSFGKGAKYYQLRCSGPGLPLYTLHSSVNDQELRVLEDNSALDEMLQDVQMPSKTLDFIILNETKFWYQMVLPPHFDKSKKYPLLLEVYAGPCSQRADAIFRLNWATYLASTENIIVASFDGRGSGYQGDKIMHAINRRLGTLEVEDQIEAARQFSKMGFVDNERIAIWGWSYGGYVTSMVLGSGSGVFKCGIAVAPVSRWEYYDSIYTERYMGLPTPEDNLDHYRNSTVMSRAENFKQVEYLLIHGTADDNVHFQQSAQISKALVDAGVDFQAMWYTDEDHGIDSSTAHQHIYTHMSHFIKQCFSLHHHHHH
- Kd [2]: 34.3 nM

B3: recombinant human DPP4 with N-terminal 8xHis-tag (hDPP4-N'His) (receptor)
chain: HHHHHHHHGGGSGGGSGGGSDSRKTYTLTDYLKNTYRLKLYSLRWISDHEYLYKQENNILVFNAEYGNSSVFLENSTFDEFGHSINDYSISPDGQFILLEYNYVKQWRHSYTASYDIYDLNKRQLITEERIPNNTQWVTWSPVGHKLAYVWNNDIYVKIEPNLPSYRITWTGKEDIIYNGITDWVYEEEVFSAYSALWWSPNGTFLAYAQFNDTEVPLIEYSFYSDESLQYPKTVRVPYPKAGAVNPTVKFFVVNTDSLSSVTNATSIQITAPASMLIGDHYLCDVTWATQERISLQWLRRIQNYSVMDICDYDESSGRWNCLVARQHIEMSTTGWVGRFRPSEPHFTLDGNSFYKIISNEEGYRHICYFQIDKKDCTFITKGTWEVIGIEALTSDYLYYISNEYKGMPGGRNLYKIQLSDYTKVTCLSCELNPERCQYYSVSFSKEAKYYQLRCSGPGLPLYTLHSSVNDKGLRVLEDNSALDKMLQNVQMPSKKLDFIILNETKFWYQMILPPHFDKSKKYPLLLDVYAGPCSQKADTVFRLNWATYLASTENIIVASFDGRGSGYQGDKIMHAINRRLGTFEVEDQIEAARQFSKMGFVDNKRIAIWGWSYGGYVTSMVLGSGSGVFKCGIAVAPVSRWEYYDSVYTERYMGLPTPEDNLDHYRNSTVMSRAENFKQVEYLLIHGTADDNVHFQQSAQISKALVDVGVDFQAMWYTDEDHGIASSTAHQHIYTHMSHFIKQCFSLP
notes: range 38-766
- Kd [3]: 7.8 nM
